# Values of other authors as cited in patent publication US9605064B2, “Methods and compositions for treatment of skin disorders” (AbbVie Biotechnology Ltd, priority 2006, dated 2017).
# Test system: hepatitis B virus (HBV)
# Details: cited from earlier work
substance,measurement,value
"Adalimumab: a human anti-TNF mAb, described in U.S. Pat. No. 6,090,382 as D2E7 (HUMIRA, Abbott Laboratories)",reactivation of hepatitis B virus (HBV),associated with reactivation of hepatitis B virus (HBV)
